From article PMC4388643 come the findings set out here.

A short description of one series: zymography. The note with it: glycan lost; control: nLcc4 (untreated).
A short description of series [1]: zymography of culture media. To be noted: glycan lost; control: rLcc4-WT (P. pastoris).
Series [2] in a line: activity versus pH and temperature. To be noted: glycan lost; control: nLcc4 (untreated).

B1: Lcc4 laccase (nLcc4): Endo H, 1 h to overnight (protein)
parent chain: MKALSFLTPIVTLALVAGAFASVGPVANLKIGNAAVSPDGYTRDAVVVNGATPGPLIVGNKGDNFRLNVIDELTNHTMLKSTSIHWHGFFQHGTNWADGGAFVNQCPISSGHSFSYNFQAKDQAGTFWYHSHLSTQYCDGLRGPFVVYDPKDPHKKLYDVDNESTVITLEDWYHTAARLGPRFPLGSDSTLINGLGRSATTATGDLAVIKVTRGKRYRFRLVSLSCDPFYTFSIDGHNMTIIEADAVNTKPHTVDSLEIFAGQRYSFILNANQPVDNYWVRANPNFGNVGFTNGINSAILRYDGAAVAEPATAIPPASVTPLLETDLHPLVSTPVPGSPVAGGVDKALNFVFNFDGTNFFINDATFTPPSVPVLLQILSGAQAAQDLLPSGSVIPLPALSTIELSFPATANAPGVPHPFHLHGHTFAVVRSAGSTAYNYEDPVWRDVVSTGTPAAGDNVTIRFVTDNPGPWFLHCHIDFHLEAGFAVVFAEDLPGTPAANPVPQSWSDLCPIYDALAEDDQ
For the protein B1, in the series “zymography”, the enzymatic_activity entry is on record as “no change”.

B2: Lcc4 laccase (nLcc4): N238D (protein)
parent chain: MKALSFLTPIVTLALVAGAFASVGPVANLKIGNAAVSPDGYTRDAVVVNGATPGPLIVGNKGDNFRLNVIDELTNHTMLKSTSIHWHGFFQHGTNWADGGAFVNQCPISSGHSFSYNFQAKDQAGTFWYHSHLSTQYCDGLRGPFVVYDPKDPHKKLYDVDNESTVITLEDWYHTAARLGPRFPLGSDSTLINGLGRSATTATGDLAVIKVTRGKRYRFRLVSLSCDPFYTFSIDGHNMTIIEADAVNTKPHTVDSLEIFAGQRYSFILNANQPVDNYWVRANPNFGNVGFTNGINSAILRYDGAAVAEPATAIPPASVTPLLETDLHPLVSTPVPGSPVAGGVDKALNFVFNFDGTNFFINDATFTPPSVPVLLQILSGAQAAQDLLPSGSVIPLPALSTIELSFPATANAPGVPHPFHLHGHTFAVVRSAGSTAYNYEDPVWRDVVSTGTPAAGDNVTIRFVTDNPGPWFLHCHIDFHLEAGFAVVFAEDLPGTPAANPVPQSWSDLCPIYDALAEDDQ
With B2, the enzymatic_activity result in series [1] is recorded as “abolishes”.

B3: Lcc4 laccase (nLcc4): N75D (protein)
parent chain: MKALSFLTPIVTLALVAGAFASVGPVANLKIGNAAVSPDGYTRDAVVVNGATPGPLIVGNKGDNFRLNVIDELTNHTMLKSTSIHWHGFFQHGTNWADGGAFVNQCPISSGHSFSYNFQAKDQAGTFWYHSHLSTQYCDGLRGPFVVYDPKDPHKKLYDVDNESTVITLEDWYHTAARLGPRFPLGSDSTLINGLGRSATTATGDLAVIKVTRGKRYRFRLVSLSCDPFYTFSIDGHNMTIIEADAVNTKPHTVDSLEIFAGQRYSFILNANQPVDNYWVRANPNFGNVGFTNGINSAILRYDGAAVAEPATAIPPASVTPLLETDLHPLVSTPVPGSPVAGGVDKALNFVFNFDGTNFFINDATFTPPSVPVLLQILSGAQAAQDLLPSGSVIPLPALSTIELSFPATANAPGVPHPFHLHGHTFAVVRSAGSTAYNYEDPVWRDVVSTGTPAAGDNVTIRFVTDNPGPWFLHCHIDFHLEAGFAVVFAEDLPGTPAANPVPQSWSDLCPIYDALAEDDQ
Regarding B3, in series [1], the enzymatic_activity result is listed as “decreases, the N75D mutant showed activity at around 60 s”.

B4: Lcc4 laccase (nLcc4): N458D (protein)
parent chain: MKALSFLTPIVTLALVAGAFASVGPVANLKIGNAAVSPDGYTRDAVVVNGATPGPLIVGNKGDNFRLNVIDELTNHTMLKSTSIHWHGFFQHGTNWADGGAFVNQCPISSGHSFSYNFQAKDQAGTFWYHSHLSTQYCDGLRGPFVVYDPKDPHKKLYDVDNESTVITLEDWYHTAARLGPRFPLGSDSTLINGLGRSATTATGDLAVIKVTRGKRYRFRLVSLSCDPFYTFSIDGHNMTIIEADAVNTKPHTVDSLEIFAGQRYSFILNANQPVDNYWVRANPNFGNVGFTNGINSAILRYDGAAVAEPATAIPPASVTPLLETDLHPLVSTPVPGSPVAGGVDKALNFVFNFDGTNFFINDATFTPPSVPVLLQILSGAQAAQDLLPSGSVIPLPALSTIELSFPATANAPGVPHPFHLHGHTFAVVRSAGSTAYNYEDPVWRDVVSTGTPAAGDNVTIRFVTDNPGPWFLHCHIDFHLEAGFAVVFAEDLPGTPAANPVPQSWSDLCPIYDALAEDDQ
In the case of B4, in series [1], the enzymatic_activity entry is on record as “abolishes”.

B5: Lcc4 laccase (nLcc4): Endo H (dLcc4) (protein)
parent chain: MKALSFLTPIVTLALVAGAFASVGPVANLKIGNAAVSPDGYTRDAVVVNGATPGPLIVGNKGDNFRLNVIDELTNHTMLKSTSIHWHGFFQHGTNWADGGAFVNQCPISSGHSFSYNFQAKDQAGTFWYHSHLSTQYCDGLRGPFVVYDPKDPHKKLYDVDNESTVITLEDWYHTAARLGPRFPLGSDSTLINGLGRSATTATGDLAVIKVTRGKRYRFRLVSLSCDPFYTFSIDGHNMTIIEADAVNTKPHTVDSLEIFAGQRYSFILNANQPVDNYWVRANPNFGNVGFTNGINSAILRYDGAAVAEPATAIPPASVTPLLETDLHPLVSTPVPGSPVAGGVDKALNFVFNFDGTNFFINDATFTPPSVPVLLQILSGAQAAQDLLPSGSVIPLPALSTIELSFPATANAPGVPHPFHLHGHTFAVVRSAGSTAYNYEDPVWRDVVSTGTPAAGDNVTIRFVTDNPGPWFLHCHIDFHLEAGFAVVFAEDLPGTPAANPVPQSWSDLCPIYDALAEDDQ
On to B5, for which, in series [2], the “other: optimal pH and temperature” value is “no change”.
